Assay in all cases: high-throughput RNA pulldown from lysate on Ni-NTA beads; HRP: 50 mM Tris pH 8, 150 mM NaCl, 1 mM beta-mercaptoethanol, 50 ug/ml BSA, 3 ug/ml yeast RNA, 0.5% heparin; ITC and FP: Tris pH 8, 200 mM KCl, 5% glycerol; MST: 50 mM Tris pH 8, 200 mM NaCl, 1 mM DTT, BSA, heparin, 0.05% Tween 20
Holding throughout (conditions): tags: N-terminal His-eGFP

The target of data set [1] is T1, GFP-9S library array, motif 4 ND N98D;D124K (synthetic construct, N98D;D124K).
T1 chain: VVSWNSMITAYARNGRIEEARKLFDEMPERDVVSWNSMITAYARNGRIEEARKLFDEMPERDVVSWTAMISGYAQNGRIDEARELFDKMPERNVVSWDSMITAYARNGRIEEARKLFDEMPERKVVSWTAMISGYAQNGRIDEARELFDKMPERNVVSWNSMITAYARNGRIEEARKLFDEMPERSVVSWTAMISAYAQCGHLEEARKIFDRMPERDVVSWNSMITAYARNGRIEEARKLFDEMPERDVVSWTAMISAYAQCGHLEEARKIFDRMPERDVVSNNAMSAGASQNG

In data set [2] the target is T2, GFP-9S library array, motif 4 ND N98W;D124C (synthetic construct, N98W;D124C).
T2 chain: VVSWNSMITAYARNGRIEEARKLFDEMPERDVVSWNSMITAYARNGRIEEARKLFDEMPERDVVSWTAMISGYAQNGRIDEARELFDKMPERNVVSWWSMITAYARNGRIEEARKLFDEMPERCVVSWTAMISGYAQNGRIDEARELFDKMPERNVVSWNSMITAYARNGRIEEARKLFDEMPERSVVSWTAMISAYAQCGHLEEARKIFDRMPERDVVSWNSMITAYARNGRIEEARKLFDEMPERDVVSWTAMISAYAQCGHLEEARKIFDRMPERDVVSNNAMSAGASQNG

Data set [3] addresses T3, GFP-9S library array, motif 4 ND N98L;D124W (synthetic construct, N98L;D124W).
T3 chain: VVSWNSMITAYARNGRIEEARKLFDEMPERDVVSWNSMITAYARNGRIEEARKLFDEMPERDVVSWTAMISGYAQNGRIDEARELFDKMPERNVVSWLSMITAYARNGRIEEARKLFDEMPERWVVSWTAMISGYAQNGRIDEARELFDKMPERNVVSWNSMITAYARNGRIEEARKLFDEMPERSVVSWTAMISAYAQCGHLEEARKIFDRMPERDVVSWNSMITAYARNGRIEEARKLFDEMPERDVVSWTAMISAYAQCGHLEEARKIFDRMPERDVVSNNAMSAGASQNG

Data set [4] deals with T4, GFP-9S library array, motif 4 ND N98W;D124S (synthetic construct, N98W;D124S).
T4 chain: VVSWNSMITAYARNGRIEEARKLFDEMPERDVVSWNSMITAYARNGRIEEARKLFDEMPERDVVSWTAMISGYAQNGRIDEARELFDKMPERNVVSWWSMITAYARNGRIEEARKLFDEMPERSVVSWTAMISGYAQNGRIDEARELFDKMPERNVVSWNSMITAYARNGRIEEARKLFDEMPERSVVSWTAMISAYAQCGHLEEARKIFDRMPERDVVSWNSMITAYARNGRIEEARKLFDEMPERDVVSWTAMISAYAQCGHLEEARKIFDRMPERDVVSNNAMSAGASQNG

Data set [5] has as its target T5, GFP-9S library array, motif 4 ND N98F;D124H (synthetic construct, N98F;D124H).
T5 chain: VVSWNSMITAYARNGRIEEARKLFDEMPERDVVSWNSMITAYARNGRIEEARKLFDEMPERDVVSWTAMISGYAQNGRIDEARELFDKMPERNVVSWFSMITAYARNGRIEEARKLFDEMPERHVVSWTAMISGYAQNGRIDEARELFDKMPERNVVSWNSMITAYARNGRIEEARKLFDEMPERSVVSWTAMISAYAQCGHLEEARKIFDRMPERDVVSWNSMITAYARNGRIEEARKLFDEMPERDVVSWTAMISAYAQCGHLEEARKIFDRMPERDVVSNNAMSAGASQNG

Experimental findings from PMC8809517, “Cofactor-independent RNA editing by a synthetic S-type PPR protein” are described below.

In the case of AUUAUACGUGA (ssRNA) [IR-rpoA-U], the Kd – broadly, the equilibrium constant for the complex coming apart – in data set [1] (label: 5' IRDye 800CW) came to 475 nM; in data set [2] (label: 5' IRDye 800CW) it was 199 nM; in data set [3] (label: 5' IRDye 800CW) it was 248 nM; in data set [4] (label: 5' IRDye 800CW), 263 nM; in data set [5] (label: 5' IRDye 800CW), 138 nM.

With AUUAGACGUGA (ssRNA) [Cy5-rpoA-G], the Kd is 134 nM in data set [1] (label: 5' Cy5); 77.6 nM in data set [2] (label: 5' Cy5); 99.9 nM in data set [3] (label: 5' Cy5); 79.8 nM in data set [4] (label: 5' Cy5); 84.9 nM in data set [5] (label: 5' Cy5).

Take AUUAAACGUGA (ssRNA) [IR-rpoA-A]: the equilibrium dissociation constant (Kd) came out at 334 nM in data set [1] (label: 5' IRDye 800CW); 181 nM in data set [2] (label: 5' IRDye 800CW); 247 nM in data set [3] (label: 5' IRDye 800CW); 247 nM in data set [4] (label: 5' IRDye 800CW); 188 nM in data set [5] (label: 5' IRDye 800CW).

Consider AUUACACGUGA (ssRNA) [Cy5-rpoA], for which the equilibrium dissociation constant (Kd) stood at 154 nM in data set [1] (label: 5' Cy5); 79.4 nM in data set [2] (label: 5' Cy5); 111 nM in data set [3] (label: 5' Cy5); 89.2 nM in data set [4] (label: 5' Cy5); 73.4 nM in data set [5] (label: 5' Cy5).
